Assay results taken from PMC9871250, “Identification of an indole biodegradation gene cluster from Providencia rettgeri and its contribution in selectively biosynthesizing Tyrian purple” (Frontiers in Bioengineering and Biotechnology, 2023).

What was measured:
[1] = substrate: c1ccc2[nH]ccc2c1; assay: indigo formation by LC-MS; assay type: biochemical, Methylophaga thalassica; details: pH 7.5, 30 °C, 250 μM NADH, 0.6% glucose with GDH recycling, unit μm [sic], meant μM, table title says NADH oxidation, methods say indigo/Tyrian purple formation
Text: indigo formation by LC-MS on MaFMO

[2] = substrate: Brc1ccc2cc[nH]c2c1; assay: Tyrian purple formation by LC-MS; assay type: biochemical, Methylophaga thalassica; details: pH 7.5, 30 °C, 250 μM NADH, 0.6% glucose with GDH recycling, unit μm [sic], meant μM, table title says NADH oxidation, methods say indigo/Tyrian purple formation
Text: Tyrian purple formation by LC-MS on MaFMO

B1: MaFMO (Methylophaga thalassica) (protein)
chain: MATRIAILGAGPSGMAQLRAFQSAQEKGAEIPELVCFEKQADWGGQWNYTWRTGLDENGEPVHSSMYRYLWSNGPKECLEFADYTFDEHFGKPIASYPPREVLWDYIKGRVEKAGVRKYIRFNTAVRHVEFNEDSQTFTVTVQDHTTDTIYSEEFDYVVCCTGHFSTPYVPEFEGFEKFGGRILHAHDFRDALEFKDKTVLLVGSSYSAEDIGSQCYKYGAKKLISCYRTAPMGYKWPENWDERPNLVRVDTENAYFADGSSEKVDAIILCTGYIHHFPFLNDDLRLVTNNRLWPLNLYKGVVWEDNPKFFYIGMQDQWYSFNMFDAQAWYARDVIMGRLPLPSKEEMKADSMAWREKELTLVTAEEMYTYQGDYIQNLIDMTDYPSFDIPATNKTFLEWKHHKKENIMTFRDHSYRSLMTGTMAPKHHTPWIDALDDSLEAYLSDKSEIPVAKEA
notes: synthesized gene, His-tag, E. coli BL21(DE3), Ni-NTA; primers give start MATRIAI, end VAKEA
Km [1]: 242.2 µM
kcat [1]: 0.000246 s⁻¹
kcat/Km [1]: 1 M⁻¹ s⁻¹
Km [2]: 303.65 µM
kcat [2]: 0.000521 s⁻¹
kcat/Km [2]: 1.67 M⁻¹ s⁻¹
